The values below come from patent publication US8357515.

The subject of this data set is LAP-MMP IL-4.

Chain of MMP-1, recombinant (P03956 100-469): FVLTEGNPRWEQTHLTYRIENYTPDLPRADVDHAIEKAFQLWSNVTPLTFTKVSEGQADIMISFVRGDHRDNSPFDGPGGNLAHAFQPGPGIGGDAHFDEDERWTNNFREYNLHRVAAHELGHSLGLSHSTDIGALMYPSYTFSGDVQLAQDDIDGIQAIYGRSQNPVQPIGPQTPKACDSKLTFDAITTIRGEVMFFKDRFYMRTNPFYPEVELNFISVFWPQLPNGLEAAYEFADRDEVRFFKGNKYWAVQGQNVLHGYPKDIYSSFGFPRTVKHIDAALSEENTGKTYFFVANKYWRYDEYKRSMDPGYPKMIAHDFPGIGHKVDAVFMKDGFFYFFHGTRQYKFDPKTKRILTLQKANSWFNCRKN

Take MMP-1, recombinant: the “cleavage of the fusion protein in 293T supernatant after overnight incubation at 37 C, Western blot probed with anti-IL-4 antibody” value is listed as “LAP-MMP IL-4 is only cleaved by MMP-1”.
